Substrate in data set [1]: CCOC1C=CC=C(C(=O)O)C1N
As to the kind of experiment: purified protein. It is filed as biochemical, Pseudomonas fluorescens. Conditions: 50 mM sodium phosphate pH 7.5, 1% DMSO, 25 °C, 1000 nM PhzF, racemic substrate.

Substrate in data set [2]: N[C@H]1C(C(=O)O)=CC=C[C@@H]1O
As to the kind of experiment: purified protein. It is filed as biochemical, Pseudomonas fluorescens. Conditions: 50 mM sodium phosphate pH 7.5, 1% DMSO, 25 °C.

[3] abbreviates: 200 nM PhzF, labelled compound (deuterated at C3).

Usually Km stands for the substrate concentration at which the rate is half of its maximum. One may read the kcat as the number of substrate molecules converted per active site and unit of time at saturation.

B1: PhzF (Pseudomonas fluorescens) (protein)
chain: MHNYVIIDAFASVPLEGNPVAVFFDADDLPPAQMQRIAREMNLSESTFVLKPRNGGDALIRIFTPVNELPFAGHPLLGTAIALGAHTDNHRLYLETQMGTIAFELERQNGSVIAASMDQPIPTWTALGRDAELLKALGISDSTFPIEIYHNGPRHVFVGLPSIDALSALHPDHRALSNFHDMAINCFAGAGRRWRSRMFSPAYGVVEDAATGSAAGPLAIHLARHGQIEFGQPVEILQGVEIGRPSLMFAKAEGRAEQLTRVEVSGNGVTFGRGTIVL
notes: N-terminal His6 tag, expressed in E. coli, homodimer
With B1, the Km in data set [1] stood at 1842 ± 355 µM; in data set [2] (40 nM PhzF dimer) it was 517 ± 57 µM; in data set [2] (setting [3]), 311 ± 14 µM. For the same protein, the kcat in data set [1] is 0.12 ± 0.02 s⁻¹; in data set [2] (40 nM PhzF dimer), 3.23 ± 0.19 s⁻¹; in data set [2] (setting [3]) it was 0.34 ± 0.01 s⁻¹.
